Source: publication PMC6261655, “Harnessing a previously unidentified capability of bacterial allosteric transcription factors for sensing diverse small molecules in vitro” (Science Advances, 2018)

Legend:
HosA = HosA (Escherichia coli, UniProt Q7ABA6); test: isothermal titration calorimetry; format: binding
HucR = target: T1, HucR (Deinococcus radiodurans, UniProt Q9RV71); test: isothermal titration calorimetry; format: binding
T1 sequence (Q9RV71 1-181): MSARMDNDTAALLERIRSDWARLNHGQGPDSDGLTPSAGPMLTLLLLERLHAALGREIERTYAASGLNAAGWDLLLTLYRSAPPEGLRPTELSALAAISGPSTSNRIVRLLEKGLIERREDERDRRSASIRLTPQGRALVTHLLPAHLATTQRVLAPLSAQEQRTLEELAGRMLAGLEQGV

AvaR1 = target: T2, AvaR1 (Streptomyces avermitilis, UniProt Q82H41 1-234); test: BLI; BLI: HBS-EP (10 mM Hepes, 15 mM NaCl, 3 mM EDTA, 0.005% Tween 20, 0.1% BSA, pH 7.4), temperature not stated; EMSA: 20 mM Tris-HCl pH 7.5, 2 mM DTT, 5 mM MgCl2; conditions: protein: recombinant, label: 5'-biotin on strand 1, blunt
T2 sequence: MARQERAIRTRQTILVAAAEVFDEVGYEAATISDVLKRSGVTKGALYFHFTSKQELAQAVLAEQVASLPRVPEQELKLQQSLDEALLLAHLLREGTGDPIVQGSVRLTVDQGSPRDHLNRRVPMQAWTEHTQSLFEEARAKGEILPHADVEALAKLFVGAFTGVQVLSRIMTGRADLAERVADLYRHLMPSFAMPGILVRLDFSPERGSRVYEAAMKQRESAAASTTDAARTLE

TetR = TetR (Escherichia coli, UniProt P04483 1-207); test: as above; conditions: protein: recombinant, chain copies: 2, label: 5'-biotin on strand 1, blunt
TetR, sequence (P04483 whole entry): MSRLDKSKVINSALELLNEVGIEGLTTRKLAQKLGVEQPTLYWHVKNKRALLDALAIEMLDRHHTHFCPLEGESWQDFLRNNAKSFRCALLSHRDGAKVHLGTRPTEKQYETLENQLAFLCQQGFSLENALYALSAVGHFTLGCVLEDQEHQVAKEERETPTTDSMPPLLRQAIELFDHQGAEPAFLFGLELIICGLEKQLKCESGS

HosA, sequence (Q7ABA6 whole entry, looked up): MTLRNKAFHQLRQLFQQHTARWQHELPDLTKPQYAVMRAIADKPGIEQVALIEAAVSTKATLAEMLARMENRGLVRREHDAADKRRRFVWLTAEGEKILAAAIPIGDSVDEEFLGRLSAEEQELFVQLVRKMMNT

Molecule: O=C(O)c1ccc(O)cc1 [4-HBA]
- Kd (HosA): 4740 ± 250 nM

Molecule: O=c1[nH]c(=O)c2[nH]c(=O)[nH]c2[nH]1 [UA]
- Kd (HucR): 9350 ± 990 nM

B1: DNAAvaR1-0 (dsDNA)
DNA 1: CGCAAGAGGGACTTGAAGACAAAACCGTCTAGTACGTATCTTTGACCTCCAGCTCTTCC
DNA 2: GGAAGAGCTGGAGGTCAAAGATACGTACTAGACGGTTTTGTCTTCAAGTCCCTCTTGCG
- Kd (AvaR1): 11.7 ± 0.028 nM

B2: DNAAvaR1-4 (dsDNA)
DNA 1: CGCAAGAGGGACTTGAAGACAAAACCGTCTAGTACGTATCTTTGACCTCCAGCTCTTCC
DNA 2: GGAAGAGCTGGAGGTCAAAGATACGTACTAGACG
DNA 3: GTTTTGTCTTCAAGTCCCTCTTGCG
modifications: nick in bottom strand
- Kd (AvaR1; nicked 1:2 1:3): 16 ± 0.032 nM

B3: DNAAvaR1-2 (dsDNA)
DNA 1: CGCAAGAGGGACTTGAAGACAAAACCGTCTAGTACGTATCTTTGACCTCCAGCTCTTCC
DNA 2: GGAAGAGCTGGAGGTCAAAGATACGTACTAGACGGTTT
DNA 3: TGTCTTCAAGTCCCTCTTGCG
modifications: nick in bottom strand
- Kd (AvaR1; nicked 1:2 1:3): 15.1 ± 0.034 nM

B4: DNAAvaR1-12 (dsDNA)
DNA 1: CGCAAGAGGGACTTGAAGACAAAACCGTCTAGTACGTATCTTTGACCTCCAGCTCTTCC
DNA 2: GGAAGAGCTGGAGGTCAA
DNA 3: AGATACGTACTAGACGGTTTTGTCTTCAAGTCCCTCTTGCG
modifications: nick in bottom strand
- Kd (AvaR1; nicked 1:2 1:3): 8.33 ± 0.015 nM

B5: DNAAvaR1-1 (dsDNA)
DNA 1: CGCAAGAGGGACTTGAAGACAAAACCGTCTAGTACGTATCTTTGACCTCCAGCTCTTCC
DNA 2: GGAAGAGCTGGAGGTCAAAGATACGTACTAGACGGTTTTG
DNA 3: TCTTCAAGTCCCTCTTGCG
modifications: nick in bottom strand
- Kd (AvaR1; nicked 1:2 1:3): 18.3 ± 0.052 nM

B6: DNAAvaR1-7 (dsDNA)
DNA 1: CGCAAGAGGGACTTGAAGACAAAACCGTCTAGTACGTATCTTTGACCTCCAGCTCTTCC
DNA 2: GGAAGAGCTGGAGGTCAAAGATACGTAC
DNA 3: TAGACGGTTTTGTCTTCAAGTCCCTCTTGCG
modifications: nick in bottom strand
- Kd (AvaR1; nicked 1:2 1:3): 10.8 ± 0.03 nM

B7: DNAAvaR1-8 (dsDNA)
DNA 1: CGCAAGAGGGACTTGAAGACAAAACCGTCTAGTACGTATCTTTGACCTCCAGCTCTTCC
DNA 2: GGAAGAGCTGGAGGTCAAAGATACGT
DNA 3: ACTAGACGGTTTTGTCTTCAAGTCCCTCTTGCG
modifications: nick in bottom strand
- Kd (AvaR1; nicked 1:2 1:3): 14.1 ± 0.025 nM

B8: DNAAvaR1-10 (dsDNA)
DNA 1: CGCAAGAGGGACTTGAAGACAAAACCGTCTAGTACGTATCTTTGACCTCCAGCTCTTCC
DNA 2: GGAAGAGCTGGAGGTCAAAGAT
DNA 3: ACGTACTAGACGGTTTTGTCTTCAAGTCCCTCTTGCG
modifications: nick in bottom strand
- Kd (AvaR1; nicked 1:2 1:3): 11 ± 0.026 nM

B9: DNAAvaR1-6 (dsDNA)
DNA 1: CGCAAGAGGGACTTGAAGACAAAACCGTCTAGTACGTATCTTTGACCTCCAGCTCTTCC
DNA 2: GGAAGAGCTGGAGGTCAAAGATACGTACTA
DNA 3: GACGGTTTTGTCTTCAAGTCCCTCTTGCG
modifications: nick in bottom strand
- Kd (AvaR1; nicked 1:2 1:3): 12.6 ± 0.021 nM

B10: DNAAvaR1-11 (dsDNA)
DNA 1: CGCAAGAGGGACTTGAAGACAAAACCGTCTAGTACGTATCTTTGACCTCCAGCTCTTCC
DNA 2: GGAAGAGCTGGAGGTCAAAG
DNA 3: ATACGTACTAGACGGTTTTGTCTTCAAGTCCCTCTTGCG
modifications: nick in bottom strand
- Kd (AvaR1; nicked 1:2 1:3): 13 ± 0.027 nM

B11: DNAAvaR1-3 (dsDNA)
DNA 1: CGCAAGAGGGACTTGAAGACAAAACCGTCTAGTACGTATCTTTGACCTCCAGCTCTTCC
DNA 2: GGAAGAGCTGGAGGTCAAAGATACGTACTAGACGGT
DNA 3: TTTGTCTTCAAGTCCCTCTTGCG
modifications: nick in bottom strand
- Kd (AvaR1; nicked 1:2 1:3): 17 ± 0.052 nM

B12: DNAAvaR1-5 (dsDNA)
DNA 1: CGCAAGAGGGACTTGAAGACAAAACCGTCTAGTACGTATCTTTGACCTCCAGCTCTTCC
DNA 2: GGAAGAGCTGGAGGTCAAAGATACGTACTAGA
DNA 3: CGGTTTTGTCTTCAAGTCCCTCTTGCG
modifications: nick in bottom strand
- Kd (AvaR1; nicked 1:2 1:3): 14 ± 0.027 nM

B13: DNAAvaR1-9 (dsDNA)
DNA 1: CGCAAGAGGGACTTGAAGACAAAACCGTCTAGTACGTATCTTTGACCTCCAGCTCTTCC
DNA 2: GGAAGAGCTGGAGGTCAAAGATAC
DNA 3: GTACTAGACGGTTTTGTCTTCAAGTCCCTCTTGCG
modifications: nick in bottom strand
- Kd (AvaR1; nicked 1:2 1:3): 22.2 ± 0.245 nM

B14: DNATetR-0 (dsDNA)
DNA 1: CCTCCGATTTTCAGATTGACACTCTATCATTGATAGGGATATATTCCAACTCTATCAAT
DNA 2: ATTGATAGAGTTGGAATATATCCCTATCAATGATAGAGTGTCAATCTGAAAATCGGAGG
- Kd (TetR): 1.08 ± 0.06 nM

B15: DNATetR-5 (dsDNA)
DNA 1: CCTCCGATTTTCAGATTGACACTCTATCATTGATAGGGATATATTCCAACTCTATCAAT
DNA 2: ATTGATAGAGTTGGAATATATCCCTATCAATG
DNA 3: ATAGAGTGTCAATCTGAAAATCGGAGG
modifications: nick in bottom strand
- Kd (TetR; nicked 1:2 1:3): 1.91 ± 0.03 nM

B16: DNATetR-7 (dsDNA)
DNA 1: CCTCCGATTTTCAGATTGACACTCTATCATTGATAGGGATATATTCCAACTCTATCAAT
DNA 2: ATTGATAGAGTTGGAATATATCCCTATCA
DNA 3: ATGATAGAGTGTCAATCTGAAAATCGGAGG
modifications: nick in bottom strand
- Kd (TetR; nicked 1:2 1:3): 1.85 ± 0.06 nM

B17: DNATetR-10 (dsDNA)
DNA 1: CCTCCGATTTTCAGATTGACACTCTATCATTGATAGGGATATATTCCAACTCTATCAAT
DNA 2: ATTGATAGAGTTGGAATATATCC
DNA 3: CTATCAATGATAGAGTGTCAATCTGAAAATCGGAGG
modifications: nick in bottom strand
- Kd (TetR; nicked 1:2 1:3): 1.22 ± 0.03 nM

B18: DNATetR-12 (dsDNA)
DNA 1: CCTCCGATTTTCAGATTGACACTCTATCATTGATAGGGATATATTCCAACTCTATCAAT
DNA 2: ATTGATAGAGTTGGAATAT
DNA 3: ATCCCTATCAATGATAGAGTGTCAATCTGAAAATCGGAGG
modifications: nick in bottom strand
- Kd (TetR; nicked 1:2 1:3): 1.1 ± 0.05 nM

B19: DNATetR-1 (dsDNA)
DNA 1: CCTCCGATTTTCAGATTGACACTCTATCATTGATAGGGATATATTCCAACTCTATCAAT
DNA 2: ATTGATAGAGTTGGAATATATCCCTATCAATGATAGAGTG
DNA 3: TCAATCTGAAAATCGGAGG
modifications: nick in bottom strand
- Kd (TetR; nicked 1:2 1:3): 1.3 ± 0.04 nM

B20: DNATetR-3 (dsDNA)
DNA 1: CCTCCGATTTTCAGATTGACACTCTATCATTGATAGGGATATATTCCAACTCTATCAAT
DNA 2: ATTGATAGAGTTGGAATATATCCCTATCAATGATAG
DNA 3: AGTGTCAATCTGAAAATCGGAGG
modifications: nick in bottom strand
- Kd (TetR; nicked 1:2 1:3): 1.72 ± 0.11 nM

B21: DNATetR-11 (dsDNA)
DNA 1: CCTCCGATTTTCAGATTGACACTCTATCATTGATAGGGATATATTCCAACTCTATCAAT
DNA 2: ATTGATAGAGTTGGAATATAT
DNA 3: CCCTATCAATGATAGAGTGTCAATCTGAAAATCGGAGG
modifications: nick in bottom strand
- Kd (TetR; nicked 1:2 1:3): 1.58 ± 0.04 nM

B22: DNATetR-4 (dsDNA)
DNA 1: CCTCCGATTTTCAGATTGACACTCTATCATTGATAGGGATATATTCCAACTCTATCAAT
DNA 2: ATTGATAGAGTTGGAATATATCCCTATCAATGAT
DNA 3: AGAGTGTCAATCTGAAAATCGGAGG
modifications: nick in bottom strand
- Kd (TetR; nicked 1:2 1:3): 1.89 ± 0.07 nM

B23: DNATetR-2 (dsDNA)
DNA 1: CCTCCGATTTTCAGATTGACACTCTATCATTGATAGGGATATATTCCAACTCTATCAAT
DNA 2: ATTGATAGAGTTGGAATATATCCCTATCAATGATAGAG
DNA 3: TGTCAATCTGAAAATCGGAGG
modifications: nick in bottom strand
- Kd (TetR; nicked 1:2 1:3): 1.78 ± 0.07 nM

B24: DNATetR-9 (dsDNA)
DNA 1: CCTCCGATTTTCAGATTGACACTCTATCATTGATAGGGATATATTCCAACTCTATCAAT
DNA 2: ATTGATAGAGTTGGAATATATCCCT
DNA 3: ATCAATGATAGAGTGTCAATCTGAAAATCGGAGG
modifications: nick in bottom strand
- Kd (TetR; nicked 1:2 1:3): 0.67 ± 0.03 nM

B25: DNATetR-6 (dsDNA)
DNA 1: CCTCCGATTTTCAGATTGACACTCTATCATTGATAGGGATATATTCCAACTCTATCAAT
DNA 2: ATTGATAGAGTTGGAATATATCCCTATCAA
DNA 3: TGATAGAGTGTCAATCTGAAAATCGGAGG
modifications: nick in bottom strand
- Kd (TetR; nicked 1:2 1:3): 2 ± 0.59 nM

B26: DNATetR-8 (dsDNA)
DNA 1: CCTCCGATTTTCAGATTGACACTCTATCATTGATAGGGATATATTCCAACTCTATCAAT
DNA 2: ATTGATAGAGTTGGAATATATCCCTAT
DNA 3: CAATGATAGAGTGTCAATCTGAAAATCGGAGG
modifications: nick in bottom strand
- Kd (TetR; nicked 1:2 1:3): 1.52 ± 0.044 nM
